Assay: soluble on expression in E. coli; label from the status in PepcDB or PDB records
In the case of “ATSDSNMLLNYVPVYVMLPLGVVNVDNVFEDPDGLKEQLLQLRAAGVDGVMVDVWWGIIELKGPKQYDWRAYRSLLQLVQECGLTLQAIMSFHQCGGNVGDIVNIPIPQWVLDIGESNHDIFYTNRSGTRNKEYLTVGVDNEPIFHGRTAIEIYSDYMKSFRENMSDFLESGLIIDIEVGLGPAGELRYPSYPQSQGWEFPGIGEFQCYDKYLKADFKAAVARAGHPEWELPDDAGKYNDVPESTGFFKSNGTYVTEKGKFFLTWYSNKLLNHGDQILDEANKAFLGCKVKLAIKVSGIHWWYKVENHAAELTAGYYNLNDRDGYRPIARMLSRHHAILNFSCLEMRDSEQPSDAKSGPQELVQQVLSGGWREDIRVAGENALPRYDATAYNQIILNARPQGVNNNGPPKLSMFGVTYLRLSDDLLQKSNFNIFKKFVLKMHADQDYCANPQKYNHAITPLKPSAPKIPIEVLLEATKPTLPFPWLPETDMKVDG”, the “soluble on expression in E. coli” value is reported as “soluble”.
For “AVGNATQPLLVVEDSDEDFSTFQRLLQREGVVNPIYRCITGDQALDFLYQTGSYCNPDIAPRPAVILLDLNLPGTDGREVLQEIKQDEVLKKIPVVIMTTSSNPKDIEICYSYSISSYIVKPLEIDRLTETVQTFIKYWLDIVVLPEMG”, the “soluble on expression in E. coli” value was “soluble”.
For “AVKVGINGFGRIGRNVFRAALKNPDIEVVAVNDLTDANTLAHLLKYDSVHGRLDAEVSVNGNNLVVNGKEIIVKAERDPENLAWGEIGVDIVVESTGRFTKREDAAKHLEAGAKKVIISAPAKNEDITIVMGVNQDKYDPKAHHVISNASCTTNCLAPFAKVLHEQFGIVRGMMTTVHSYTNDQRILDLPHKDLRRARAAAESIIPTTTGAAKAVALVLPELKGKLNGMAMRVPTPNVSVVDLVAELEKEVTVEEVNAALKAAAEGELKGILAYSEEPLVSRDYNGSTVSSTIDALSTMVIDGKMVKVVSWYDNETGYSHRVVDLAAYIASKGL”, the “soluble on expression in E. coli” value was “soluble”.
For “AVNGKGMNPDYKAYLMAPLKKIPEVTNWETFENDLRWAKQNGFYAITVDFWWGDMEKNGDQQFDFSYAQRFAQSVKNAGMKMIPIISTHQCGGNVGDDCNVPIPSWVWNQKSDDSLYFKSETGTVNKETLNPLASDVIRKEYGELYTAFAAAMKPYKDVIAKIFLSGGPAGELRYPSYTTSDGTGYPSRGKFQAYTEFAKSKFRLWVLNKYGSLNEVNKAWGTKLISELAILPPSDGEQFLMNGYLSMYGKDYLEWYQGILENHTKLIGELAHNAFDTTFQVPIGAKIAGVHWQYNNPTIPHGAEKPAGYNDYSHLLDAFKSAKLDVTFTCLEMTDKGSYPEYSMPKTLVQNIATLANEKGIVLNGENALSIGNEEEYKRVAEMAFNYNFAGFTLLRYQDVMYNNSLMGKFKDLLGVTPVMQTIVVKNVPTTIGDTVYITGNRAELGSWDTKQYPIQLYYDSHSNDWRGNVVLPAERNIEFKAFIKSKDGTVKSWQTIQQSWNPVPLKTTSHTSSW”, the “soluble on expression in E. coli” value was “soluble”.
For “AVTFAVMVSDAPSLDESKLKTPYSSTIYDKNGKEIAEVGAEKRTYVSIDEIPDVVKEAFIATEDARFYEHHGIDPVRIGGALVANFKDGFGAEGGSTITQQVVKNSLLSHQKTLKRKVQEVWLSIQLERNYSKDEILEMYLNRIYFSPRAYGIGKAAEEFFGVTDLSKLTVEQAATLAGMPQSPTAYNPVKNPDKAEKRRNIVLSLMKKQGFISDSQYNKAKKVAVKDEGVVSQKEYEKASTNKYSAFVEEVMKEIDEKSDVDPSADGLKIYTTLDTKAQDKLDELMDGDTVGFTEGMQGGVTLLDTKNGEVRAIGAGRNQPVGGFNYATQTKAQPGSTIKPILDYGPVIENKKWSTYEQIDDSAYTYSNGKPIRDWDRKYLGPISMRYALAQSRNIPALKAFQAVGKDTAVDFANGLGLGLTKDNVTEAYSIGGFGGNDGVSPLTMAGAYSAFGNNGTYNEPHFVKSIEFNDGTKLDLTPKSKSAMSDYTAFMITDMLKTAVKTGTGQLAQVPGVEVAGKTGTTNFDDNEVKRYNIASGGARDSWFVGYTPQYTAAVWTGMGENEAGKKSLSAEEQKVAKRIFAQLIADVDDGSGSFEKPDSVVEATVEKGSNPAKLAGPNTPSDKKLTEYFVKGTAPSTVSKTYEKEEKEETAKLSGLNVKYDKDNQSLTLSWNYDGDATFAVKQSVDGGSYSEIQNSSAKEAVISGVQPGSVYKFEVTAVSDDGKSTASTSYEVPKAEDDEDKKDQQQTDDEKQDDEKTQDDTQTDDSQKDDGQTDQDQTDDSTNDQDKKQDNTNTNPSDNNNQDQSNDNDNDNSNNQDTSDGDSNSGKNDSTGSDTNKNKTDTSNKTQTNSSSIEKT”, the “soluble on expression in E. coli” value was “not soluble”.
For “CIPLWGTVSIQGNRSEMEDAFAVSPHFLKLPIKMLMGDHEGMSPSLTHLTGHFFGVYDGHGGHKVADYCRDRLHFALAEEIERIKDELCKRNTGEGRQVQWDKVFTSCFLTVDGEIEGKIGRAVVGSSDKVLEAVASETVGSTAVVALVCSSHIVVSNCGDSRAVLFRGKEAMPLSVDHKPDREDEYARIENAGGKVIQWQGARVFGVLAMSRSIGDRYLKPYVIPEPEVTFMPRSREDECLILASDGLWDVMNNQEVCEIARRRILMWHKKNGAPPLAERGKGIDPACQAAADYLSMLALQKGSKDNISIIVIDLKAQRK”, the “soluble on expression in E. coli” value was “soluble”.
For “CLEDILSATKMVINLCLPQFRPRIHCNKISADGYEVENLISEDLTKRSHGFRTEYFIKPPVYVTVSFPFNVEICRINIDLTAGGGQNVTGLEMYTSASSSRVSWNTPQCRTLGPAEPSVPDKEAFTLVGKVLLKNQSQVVFSHRGFKARPPFGAMEATLPSPAVVAQELWNKGALSLSHVAHLRICITHVTGGGIPCIKRLEVWGQPAKTCSQEVIDSILLVTSENLPQDVALQAPALPMESDCDPGDQPESQQAPSSLQKLAEIIQDVPEEFLDPITLEIMPCPMLLPSGKVIDQSTLEKCNRSEATWGRVPSDPFTGVAFTPHSQPLPHPSLKARIDHFLLQHSIPGCHLLGRAQTALAVIPSSIVLPSQKRKIEQAEHVPDSNFGVNASCFSATSPLVLPTTSEHTAKKMKATNEPSLTHMDCSTGPLSHEQKLSQSLEIALASTLGSMPSFTARLTRGQLQHLGTRGSNTSWRPGTGSEQPGSILGPECASCKRVFSPYFKKEPVYQLPCGHLLCRPCLGEKQRSLPMTCTACQRPVASQDVLRVHF”, the “soluble on expression in E. coli” value was “soluble”.
In the case of “CPQEDSDIAFLIDGSGSIIPHDFRRMKEFVSTVMEQLKKSKTLFSLMQYSEEFRIHFTFKEFQNNPNPRSLVKPITQLLGRTHTATGIRKVVRELFNITNGARKNAFKILVVITDGEKFGDPLGYEDVIPEADREGVIRYVIGVGDAFRSEKSRQELNTIASKPPRDHVFQVNNFEALKTIQNQLREKIFAIGSPGI”, the “soluble on expression in E. coli” value is reported as “soluble”.
For “CSCSPVHPQQAFCNADIVIRAKAVNKKEVDSGNDIYGNPIKRIQYEIKQIKMFKGPDQDIEFIYTAPAAAVCGVSLDIGGKKEYLIAGKAEGNGNMHITLCDFIVPWDTLSATQKKSLNHRYQMGCECKITRCPMIPCYISSPDECLWMDWVTEKNINGHQAKFFACIKRSDGSCAWYRGAAPP”, the “soluble on expression in E. coli” value was “soluble”.
In the case of “CSKNRKAKAKPVTRGTGAGSRPRGQNKERPPPVPNPDYEPIRKGQRDLYSGLNQRAV”, the “soluble on expression in E. coli” value is reported as “soluble”.
For “CSSPKPDAEEQGVPVSPTASDPALLAEIRQSLDATKGLTSVHVAVRTTGKVDSLLGITSADVDVRANPLAAKGVCTYNDEQGVPFRVQGDNISVKLFDDWSNLGSISELSTSRVLDPAAGVTQLLSGVTNLQAQGTEVIDGISTTKITGTIPASSVKMLDPGAKSARPATVWIAQDGSHHLVRASIDLGSGSIQLTQSKWNEPVNVD”, the “soluble on expression in E. coli” value was “soluble”.
With “DARFSLGGYAGGMYDVHVKNSWYVQPQLLFTYEEFRSKTRLGTDSFFSKFNLELPILASYNVALNNKWNLHINAGPYLSYAMFGRDKSIDYAYGNGMHSSLGWWHQDFPDHFTYGGRAGVSLESEHFIYTIDGKCSLRKRPFGRSVSLSAGVGYKF” the “soluble on expression in E. coli” value was “not soluble”.
For “DCEKEGEVQWFALPVVLVSGCKKERAIEMKLPTEALFACLQNYPHLRALTQETQWLPYLVHSSDLSAVAPDEWWRAKQNTEAAAQHLRRFAPRPLLLPEGQSVHVVYALGFGSGKVQTALGQNLLQAGLPLMQVWQENLASEGVTLFANPLSPDSPVRALSDGSHTRQRMAMDVFAANAIRAVRMQSPR”, the “soluble on expression in E. coli” value was “not soluble”.
For DCYCRIPACIAGEKKYGTCIYQGKLWAFCC, the “soluble on expression in E. coli” value was “soluble”.
In the case of “DDSAVTLFIPGYAGNRFSFGGMLQRFTAGGIANKSLVVMIDRHNHPHVTGELDAYRPMVQLIFATPRVAVRQQAAGVLAVVQYLIAHEHVQTINLVAHSMGGVVLFQYLTTAAKLVNLPEVRKVVTIGAPFNDSEVGQNTYPIENHPLTATGPTKTTPVYNYFLRTLQRLPNTISYLNIAGNIGDAAQSDGAVALNSALSLRFLLRPTRDQYQEFVVHGKNARHSRLHENYEVDRQIVQFFISRSHKKGCW”, the “soluble on expression in E. coli” value is reported as “not soluble”.
With “DEGYWDCSVCTFRNSAEAFKCMMCDVRKGTSTRKPRPVSQ” the “soluble on expression in E. coli” value was “soluble”.
With “DEILIDPHAVLGPVDPQLMNYPAPSILKVVEKKEPKDIDDKTLIMADIAEKAINQVRETVFNLLKDKMDEEKAREVAKILTEGRWTHDYPLTVEELRQLGLKVSTDVPEEVYELMELYPQPMMQRHPGVEFVPSPPKGEKPSFK” the “soluble on expression in E. coli” value was “not soluble”.
With “DERKRQESLIQSMFMPREILRASLSDVDLNDDGRIKAIRFAERFVAEYEPGKKMKGLYLHGSFGVGKTYLLAAIANELAKRNVSSLIVYVPELFRELKHSLQDQTMNEKLDYIKKVPVLMLDDLGAEAMSSWVRDDVFGPILQYRMFENLPTFFTSNFDMQQLAHHLTYSQRGEEEKVKAARIMERIRYLAYPIEITGPNRR” the “soluble on expression in E. coli” value was “soluble”.
For “DFEDVHIAEARVDVPSTWRDQIVNTNAVATETHPLKCAEVETQTGSKDNQGTQTDDAGGGRPPSPSKVQASGVADFMAKVEGMVAGELVKATEEHEVLEPFTRAADDEQEPATCIHYLSPFQQDAA”, the “soluble on expression in E. coli” value was “not soluble”.
With “DGRRMVQGLLTASLLTSIGGDLEVLASRMDLQFQRPVYTGETLVCELTVVSADPHTDGGVALVGDVAVRRVNRDDNSGQADTAAP” the “soluble on expression in E. coli” value was “not soluble”.
For “DGTVLPGPVPVTVAVRAPGDENDEDASGEASTPNAVRPRTSCRRDRFVAGIVRGTFHPDLYMCSQDCITFKGKRIGRSKFEKLGNSSMAKWHRSIRVIREDGELEPLGEWLTRHGLPVLKGKQRISRKRTIRI”, the “soluble on expression in E. coli” value was “not soluble”.
For “DGYIGVMIDDLVTKGTIEPYRLLTSRAEYRLILRHDNADMRLTEMGREIGLVDDERWARFEIKKNQFDNEMKRLDSIKLKPVKETNAKVEEMGFKPLTDAVTAKEFLRRPEVSYQDVVAFIGPAAEDLDDKIIELIETEIKYEGYISKAMDQVAKMKRMEEKRIPANIDWDDIDSIATEARQKFKLINPETIGQASRISGVNPADISILMVYLEG”, the “soluble on expression in E. coli” value was “not soluble”.
In the case of “DIELTQSPATLSVTPGNSVSISCRASQSLVNEDGNTYLFWYQQKSHESPRLLIKYASQSISGIPSRFSGSGSGTDFTLSINSVETEDLAVYFCQQITDWPFTFGGGTKLEIKRADAAPTVSIFPPSSEQLTSGGASVVCFLNNFYPKDINVKWKIDGSERQNGVLNSWTDQDSKDSTYSMSSTLTLTKDEYERHNSYTCEATHKTSTSPIVKSFNRNEC”, the “soluble on expression in E. coli” value is reported as “soluble”.
In the case of “DIEVSEDVRKEQLGWLSCVSRAILKQNIITYSQPIVHAYSHLPASQECLVRILEEDGTVIAPGRFLPIISDTHLYTRLSRHMIRSTLHYMRDKKGDFSINLSPQDLLSDKTLMLLEHEISQLNDPTRIGLEVLESEQIKDYGRMIEVCSHFRKLGARIIVDDFGSGYSNIDEILKLEPEVIKLDGSLIRDIDKDLKQRKIASQLVRLCQVFNAETVAEFVHNREVCKIAQDMGVDYLQGYYLGEP”, the “soluble on expression in E. coli” value is reported as “not soluble”.
In the case of “DIGCYTLGNAPPLELIDTCLCMGAGISIAGGISRTTKNSKNVAFIGDSTFFHSGIPAVINAVYNNADVTIAVLDNRTTAMTGHQPHPGTGKTALGKPTKLIDIEGILKSCGVEFVKTVSADDFSACKEISKEVIEYNGPSAVVFRGNCVSLVKSDKKYVIDK”, the “soluble on expression in E. coli” value is reported as “not soluble”.

— the DeepSol protein solubility set
